Data as given in the supplement of paper PMC6757056.
± gives the standard deviation of the averaged measurements.

B1: library; a variant is named by its letters at N, in order (parent)
chain: GCUGUCACCGGUGUAUUACCCUAGUGGUCGACCGGUCUGAUGAGUCUNNNNNNAGACGAAACAGC

Columns and labels:
hypoxanthine [1] = variants of: B1; assay: FACS-Seq fitted mean relative fluorescence mCherry/BFP without ligand (log10 relative fluorescence); ligand: hypoxanthine (xanthine aptamer); higher = higher reporter protein expression; details: HEK293T, ligand present: no
Method: (§1)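 Hammerhead (sTRSV) ribozyme switch libraries with a ligand aptamer grafted on stem I and a randomized N4-6 loop II, cloned into the 3' UTR of mCherry and transiently transfected into HEK293T cells; RNA-Seq 72 h post transfection with ligand added 1 h before transfection; RNA read count / plasmid DNA read count normalized to the non-cleaving sTRSVctl (x100), log10; sequences with >100 DNA reads. FACS-Seq: lentiviral library sorted into 6 bins after 48 h ligand, log-normal fit mean of mCherry/BFP scaled to controls. Printed sequences are partial switch sequences.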

hypoxanthine [2] = variants of: B1; assay: normalized RNA/DNA level with ligand (relative to sTRSVctl = 100) (log10 (% of sTRSVctl)); ligand: hypoxanthine (xanthine aptamer); higher = less ribozyme self-cleavage, higher mRNA level; details: ligand concentration (+) RNA-Seq: 5 mM, HEK293T, reporter: mCherry (pCS4076), ligand present: yes
Method: as §1

hypoxanthine [3] = variants of: B1; assay: normalized RNA/DNA level without ligand (relative to sTRSVctl = 100) (log10 (% of sTRSVctl)); ligand: hypoxanthine (xanthine aptamer); higher = less ribozyme self-cleavage, higher mRNA level; details: HEK293T, reporter: mCherry (pCS4076), ligand present: no
Method: as §1

hypoxanthine [4] = variants of: B1; assay: FACS-Seq fitted mean relative fluorescence mCherry/BFP with ligand (log10 relative fluorescence); ligand: hypoxanthine (xanthine aptamer); ligand concentration (+) FACS-Seq: 5 mM; higher = higher reporter protein expression; details: HEK293T, ligand present: yes
Method: as §1

Variant	FACS-Seq fitted mean (log10) (hypoxanthine [1])	normalized RNA/DNA level with ligand (log10) (hypoxanthine [2])	normalized RNA/DNA level without ligand (log10) (hypoxanthine [3])	FACS-Seq fitted mean (log10) (hypoxanthine [4])
UACAGA	0.0904 ± 0.019	1.908 ± 0.018	1.54 ± 0.02	0.383 ± 0.04
GAACGG	-0.137 ± 0.019	1.74 ± 0.081	1.22 ± 0.085	0.484 ± 0.059
GAACGA	0.281 ± 0.023	1.91 ± 0.049	1.62 ± 0.046	0.454 ± 0.011
GAACGC	0.366 ± 0.038	1.85 ± 0.038	1.592 ± 0.0033	0.684 ± 0.031
GAAGUG	-0.0452 ± 0.0093	1.8 ± 0.024	1.276 ± 0.012	0.468 ± 0.037
GAAGUU	-0.155 ± 0.12	1.966 ± 0.0047	1.831 ± 0.008	-0.587 ± 0.17
CAAUCC	0.406 ± 0.038	1.97 ± 0.086	1.82 ± 0.026	0.468 ± 0.05
UAAUCU	0.5653 ± 0.0022	1.96 ± 0.043	1.87 ± 0.061	0.561 ± 0.067
UAAUCG	-0.0742 ± 0.028	1.93 ± 0.021	1.633 ± 0.014	0.247 ± 0.059
AAAGAA	0.0245 ± 0.07	1.9 ± 0.028	1.715 ± 0.0039	0.207 ± 0.017
AAAGAG	-0.112 ± 0.064	1.8 ± 0.025	1.32 ± 0.042	0.451 ± 0.045
AAAGAU	0.523 ± 0.055	1.895 ± 0.016	1.68 ± 0.017	0.708 ± 0.025
CAAGUC	0.736 ± 0.067	1.95 ± 0.069	1.921 ± 0.018	0.635 ± 0.04
CAACGC	0.362 ± 0.014	1.92 ± 0.073	1.87 ± 0.019	0.326 ± 0.019
CAACGA	0.153 ± 0.16	1.951 ± 0.011	1.79 ± 0.036	0.353 ± 0.055
GAAAGU	0.233 ± 0.011	1.91 ± 0.022	1.752 ± 0.0063	0.17 ± 0.018
GAACCG	0.156 ± 0.11	1.9 ± 0.08	1.48 ± 0.052	0.296 ± 0.017
GAACCA	0.493 ± 0.094	1.948 ± 0.018	1.816 ± 0.014	0.365 ± 0.0063
CAAUAA	0.566 ± 0.035	1.89 ± 0.04	1.654 ± 0.0078	0.578 ± 0.07
CAAUAC	0.32 ± 0.022	1.93 ± 0.069	1.767 ± 0.01	0.507 ± 0.0056
GAAUAG	0.0583 ± 0.0095	1.786 ± 0.011	1.35 ± 0.026	0.459 ± 0.05
GAAUAC	0.23 ± 0.012	1.89 ± 0.044	1.713 ± 0.0067	0.499 ± 0.062
GAAUAA	0.317 ± 0.056	1.91 ± 0.04	1.78 ± 0.0034	0.497 ± 0.03
AAAAGU	0.21 ± 0.0047	1.854 ± 0.011	1.55 ± 0.032	0.339 ± 0.09

Variant	FACS-Seq fitted mean (log10) (hypoxanthine [1])	normalized RNA/DNA level with ligand (log10) (hypoxanthine [2])	normalized RNA/DNA level without ligand (log10) (hypoxanthine [3])	FACS-Seq fitted mean (log10) (hypoxanthine [4])
AAAGCU	-0.307 ± 0.014	1.94 ± 0.026	1.85 ± 0.034	-0.41 ± 0.022
AAAGCG	0.0919 ± 0.015	1.82 ± 0.026	1.32 ± 0.086	0.539 ± 0.023
AAAGCA	0.391 ± 0.034	1.93 ± 0.043	1.77 ± 0.035	0.503 ± 0.023
AAAAUG	0.362 ± 0.024	1.857 ± 0.017	1.51 ± 0.044	0.671 ± 0.053
AAAAUU	0.401 ± 0.01	1.93 ± 0.04	1.86 ± 0.041	0.491 ± 0.064
UAACCG	0.631 ± 0.023	1.95 ± 0.04	1.68 ± 0.033	0.756 ± 0.013
UAACCC	0.667 ± 0.078	1.94 ± 0.08	1.856 ± 0.0018	0.767 ± 0.065
GAAUCG	0.14 ± 0.0063	1.84 ± 0.02	1.4 ± 0.053	0.439 ± 0.05
GAAUCA	0.438 ± 0.055	1.94 ± 0.065	1.809 ± 0.013	0.46 ± 0.066
UACAAG	0.335 ± 0.0078	1.928 ± 0.011	1.58 ± 0.018	0.444 ± 0.047
UACAAU	0.702 ± 0.073	1.9 ± 0.039	1.819 ± 0.0071	0.7079 ± 0.0057
CAACUU	0.257 ± 0.007	1.95 ± 0.043	1.873 ± 0.0032	0.377 ± 0.026
CAACUA	0.494 ± 0.084	1.93 ± 0.029	1.709 ± 0.011	0.695 ± 0.016
UACACU	-0.295 ± 0.069	1.911 ± 0.006	1.9 ± 0.0044	-0.34 ± 0.0052
CAACAU	0.722 ± 0.052	1.87 ± 0.032	1.75 ± 0.035	0.672 ± 0.078
CAACAC	0.465 ± 0.089	1.895 ± 0.0089	1.69 ± 0.047	0.206 ± 0.043
UAAUAA	0.267 ± 0.015	1.902 ± 0.012	1.78 ± 0.023	0.321 ± 0.019
UAAUAG	0.548 ± 0.036	1.874 ± 0.0076	1.631 ± 0.014	0.666 ± 0.019
UAAUAU	0.353 ± 0.012	1.91 ± 0.061	1.796 ± 0.005	0.558 ± 0.096
CAAUUA	0.8094 ± 0.0076	1.89 ± 0.049	1.728 ± 0.0045	0.753 ± 0.03
CAAUUU	-0.039 ± 0.03	1.932 ± 0.015	1.83 ± 0.034	0.406 ± 0.03
CAAUUG	0.324 ± 0.016	1.96 ± 0.026	1.894 ± 0.014	0.498 ± 0.044
CAAGAA	0.513 ± 0.021	1.89 ± 0.03	1.7 ± 0.044	0.45 ± 0.091
CAAGAG	0.342 ± 0.095	1.86 ± 0.036	1.57 ± 0.03	0.473 ± 0.018

Variant	FACS-Seq fitted mean (log10) (hypoxanthine [1])	normalized RNA/DNA level with ligand (log10) (hypoxanthine [2])	normalized RNA/DNA level without ligand (log10) (hypoxanthine [3])	FACS-Seq fitted mean (log10) (hypoxanthine [4])
UAAUUA	0.737 ± 0.055	1.92 ± 0.081	1.87 ± 0.032	0.65 ± 0.063
UAAUUU	-0.253 ± 0.046	1.98 ± 0.034	1.892 ± 0.01	-0.129 ± 0.063
UAAUUC	0.569 ± 0.0061	1.96 ± 0.029	1.91 ± 0.0049	0.671 ± 0.032
AAAUUA	-0.311 ± 0.019	1.899 ± 0.016	1.83 ± 0.055	-0.0839 ± 0.038
AAAUUU	0.596 ± 0.082	1.95 ± 0.043	1.9 ± 0.034	0.577 ± 0.029
AAAUUC	0.489 ± 0.043	1.95 ± 0.041	1.87 ± 0.033	0.603 ± 0.015
AAAUUG	0.0713 ± 0.0046	1.88 ± 0.035	1.54 ± 0.049	0.431 ± 0.0093
GAAUUG	0.0724 ± 0.04	1.81 ± 0.032	1.4 ± 0.076	0.434 ± 0.011
GAAUUA	0.374 ± 0.05	1.91 ± 0.043	1.804 ± 0.012	0.557 ± 0.089
GAAUUC	0.407 ± 0.28	1.929 ± 0.0056	1.9 ± 0.039	0.388 ± 0.089
AAAGUA	0.554 ± 0.029	1.9 ± 0.023	1.73 ± 0.053	0.61 ± 0.032
AAAGUU	0.306 ± 0.0051	1.91 ± 0.026	1.823 ± 0.0039	0.548 ± 0.017
AAAGUG	0.148 ± 0.035	1.81 ± 0.034	1.31 ± 0.043	0.47 ± 0.012
GACAAA	0.0314 ± 0.035	1.91 ± 0.058	1.774 ± 0.011	0.0426 ± 0.012
UAAGAA	0.349 ± 0.3	1.91 ± 0.025	1.68 ± 0.011	0.395 ± 0.051
UAAGAC	0.419 ± 0.024	1.87 ± 0.05	1.82 ± 0.035	0.507 ± 0.024
UAAGAG	0.312 ± 0.071	1.833 ± 0.013	1.528 ± 0.011	0.422 ± 0.032
UAAGGG	0.3343 ± 0.00083	1.878 ± 0.013	1.4441 ± 0.0011	0.519 ± 0.015
UAAGGA	0.215 ± 0.031	1.88 ± 0.041	1.608 ± 0.0063	0.472 ± 0.057
UAAGGU	0.356 ± 0.021	1.94 ± 0.042	1.53 ± 0.027	0.602 ± 0.06
AAAUGG	0.175 ± 0.024	1.78 ± 0.025	1.33 ± 0.019	0.502 ± 0.013
AAAUGA	0.89 ± 0.066	1.924 ± 0.0069	1.688 ± 0.0025	0.709 ± 0.13
AAAUGC	-0.0368 ± 0.059	1.92 ± 0.029	1.76 ± 0.026	0.173 ± 0.096
